Measurements reported in US20070128192A1.

How the values were obtained:
human IL-13 (human) = human IL-13 (human) (UniProt P35225); experiment: cell-based or functional assay
[1] = biological target: native (naturally occurring) human IL-13 released from HDLM-2 cells (human) (UniProt P35225); experiment: cell-based or functional assay
Sequence of native (naturally occurring) human IL-13 released from HDLM-2 cells (human) (P35225 other isoform, or with tags, fused parts or gaps): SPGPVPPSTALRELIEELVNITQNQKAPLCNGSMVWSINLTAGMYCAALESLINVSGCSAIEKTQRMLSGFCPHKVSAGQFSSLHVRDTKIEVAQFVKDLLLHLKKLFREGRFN

Sequence of human IL-13 (human) (P35225 other isoform, or with tags, fused parts or gaps): as above

Substance | IC50, TF-1 proliferation assay (human IL-13 (human)) [pM] | IC50, eotaxin release from NHLF (human IL-13 (human)) [pM] | IC50, HDLM-2 cell proliferation assay [1] [pM]
B-B13 (antibody) | 1020 | 219 | 16700
JES10-5A2 (antibody) | 471 | 623 | 10700
